T1: p75^NTR ICD (Homo sapiens, UniProt P08138)
T1 construct: peptide array data of Rab31 peptides with p75^NTR intracellular domain (ICD)
T1 sequence (P08138 273-427 limits assumed): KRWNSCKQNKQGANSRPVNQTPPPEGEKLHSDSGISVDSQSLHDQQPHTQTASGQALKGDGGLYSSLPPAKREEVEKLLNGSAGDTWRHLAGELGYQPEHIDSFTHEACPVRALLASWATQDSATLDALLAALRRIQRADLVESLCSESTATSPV

T2: Rab31 (Homo sapiens, UniProt Q13636)
T2 sequence (Q13636 1-195): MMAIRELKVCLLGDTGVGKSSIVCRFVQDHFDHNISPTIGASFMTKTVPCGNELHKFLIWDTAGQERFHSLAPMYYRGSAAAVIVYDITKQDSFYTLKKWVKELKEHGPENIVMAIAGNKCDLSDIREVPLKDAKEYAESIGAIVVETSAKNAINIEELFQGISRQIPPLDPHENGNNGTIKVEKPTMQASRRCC


Experiments:
[1] = target: T1, p75^NTR ICD; assay: Peptide array of Rab31 peptides with GST-p75^NTR ICD; type: binding; details: peptide array of overlapping Rab31 peptides, 1 μg/ml GST-p75^NTR ICD
Description: Peptide arrays were manufactured by Kinexus Bioinformatics Corporation (Vancouver, Canada). Synthetic overlapping peptides (25 amino acids in length) for Rab31 were spotted on nitrocellulose membranes. Membranes were overlaid with 1 μg/ml recombinant GST-p75^NTR ICD. Bound recombinant GST-p75ICD were detected using rabbit anti-p75^NTR (1:1000, Millipore) followed by secondary anti-rabbit horseradish peroxidase antibody (1:5000, Cell Signaling).

[2] = test system: Rab5; assay: Peptide array mapping of p75ICD peptides with GST-Rab5; type: binding; details: peptide array of overlapping p75ICD peptides, 1 μg/ml GST-Rab5
Description: (§1) Peptide arrays were manufactured by Kinexus Bioinformatics Corporation (Vancouver, Canada). Synthetic overlapping peptides (25 amino acids in length) for p75ICD were spotted on nitrocellulose membranes. Membranes were overlaid with 1 μg/ml recombinant GST-Rab31, GST-Rab5 and p75^NTR ICD. Bound recombinant GST-Rab31 and GST-Rab5 were detected using rabbit anti-GST (1:1000, Cell Signaling) and bound recombinant p75ICD was detected using rabbit anti-p75^NTR (1:1000, Millipore) followed by secondary anti-rabbit horseradish peroxidase antibody (1:5000, Cell Signaling).

[3] = target: T2, Rab31; assay: Peptide array mapping of p75ICD peptides with GST-Rab31; type: binding; details: peptide array of overlapping p75ICD peptides, 1 μg/ml GST-Rab31
Description: as §1

[4] = test system: 3T3L1 adipocytes; assay: Glucose uptake assay in 3T3L1 adipocytes; type: cell-based, mouse; details: for glucose uptake: addition of neurotrophin ligand, 100 ng/ml NGF or 50 ng/ml BDNF; for basal and insulin-stimulated glucose uptake: neurotrophin treatment for 1 h before insulin stimulation
Description: 3T3L1 cells were maintained in DMEM containing 10% bovine serum. All media were supplemented with 1% penicillin/streptomycin (Invitrogen). Mouse embryonic fibroblasts (MEFs) were isolated from wild-type (WT) and p75^NTR−/− embryos as described (5). Briefly, heads and internal organs were removed from E12-14 embryos, and the remaining embryo was minced with scissors. Ten ml of ice cold phosphate-buffered saline (PBS) was added and minced embryos were centrifuged for 5 minutes at 500×g. Each embryo was resuspended in 7.5 ml Trypsin-EDTA for 20 minutes at 37° C. with occasional shaking. After trypsin deactivation by 7.5 ml DMEM with 10% FBS the suspension was poured through a 70 μm filter and cells were cultured in DMEM with 10% fetal bovine serum (FBS). Differentiation of 3T3L1 cells and MEFs was performed as described (6). Briefly, differentiation was induced by incubating confluent monolayers for 3 days in DMEM containing 10% fetal bovine serum (FBS), 0.5 mM 3-isobutyl-1-methylxanthine, 0.4 μg/ml dexamethasone, and 1 μg/ml of insulin. Medium was replaced every 2 days with DMEM containing 10% FBS. After 8-12 days, 75% of the cells expressed the adipocyte phenotype as assessed by Oil Red O. Isolation of primary adipocytes from epididymal fat pads was performed as described (7). Briefly, fat pads were minced in Krebs-Ringer Bicarbonate-Hepes (KRBH) buffer, pH 7.4, treated with collagenase (Invitrogen) for 40 min, filtered through a nylon strainer and centrifuged at 400×g for 1 minute. Fully-differentiated adipocytes were transfected by electroporation using Amaxa Cell Line Nucleofector kit L (Lonza) following manufacturer's instructions. For p75^NTR knockdown experiments, 3T3L1 cells were differentiated for 6-8 days and infected with lentivirus encoding a short hairpin shRNA for mouse p75^NTR (8) and L6 myocytes were transfected with siGENOME SMART pool for rat p75^NTR (Thermo Scientific).
Fully differentiated 3T3L1 adipocytes and eight day differentiated WT and p75^NTR−/− MEFs were serum-starved for 3 hrs in DMEM and then equilibrated in Hepes/Salt (H/S) buffer for 30 min prior to treatment with 100 nM insulin for 30 min at 37° C. Thirty min after the addition of insulin, [^3H]-2-deoxyglucose (Amersham) and 2 mM 2-deoxyglucose (Sigma) in H/S buffer was added. After incubation at 37° C. for 10 min, the reactions were terminated by washing twice with ice-cold PBS. Cells were lysed in 1 M NaOH for 30 min at room temperature. An equal volume of 1 M HCl was added and incorporated radioactivity was measured by liquid scintillation counting. […] The fat cells were isolated and the level of radioactivity was counted. […]

binding to p75^NTR ICD [1]	Molecule	interaction with Rab5-GST [2]	interaction with Rab31-GST [3]	glucose uptake [4]	basal and insulin-stimulated glucose uptake [4]
binds	EHGPENIVMAIAGNK [Peptide 6]				
	LLASWATQDSATLDA [peptide 7, p75^NTR ICD death-domain peptide, aa 386-400, helix 4 and region between helixes 4 and 5]	strongest interactions	strongest interactions		
	NGF: p75^NTR neurotrophin ligand, nerve growth factor (Peprotech)			did not affect	No statistically significant differences
	BDNF: p75^NTR neurotrophin ligand, brain-derived neurotrophic factor (Peprotech) (protein, UniProt P23560 19-247, looked up) Neurotrophic factor BDNF …: APMKEANIRGQGGLAYPGVRTHGTLESVNGPKAGSRGLTSLADTFEHVIEELLDEDQKVRPNEENNKDADLYTSRVMLSSQVPLEPPLLFLLEEYKNYLDAANMSMRVRRHSDPARRGELSVCDSISEWVTAADKKTAVDMSGGTVTVLEKVPVSKGQLKQYFYETKCNPMGYTKEGCRGIDKRHWNSQCRTTQSYVRALTMDSKKRIGWRFIRIDTSCVCTLTIKRGR			did not affect	No statistically significant differences

— patent publication US10247735B2, “Compositions and methods for regulating glucose metabolism” (The J. David Gladstone Institutes, priority 2011, dated 2019)
